Assay results as given in patent US20220177587A1, “METHODS AND USES OF VARIANT CD80 FUSION PROTEINS AND RELATED CONSTRUCTS” (Alpine Immune Sciences, Inc., priority 2018, published 2022).
Numbering of substitutions follows the chain as printed. Numbers in names are those of the source.

B1: variant CD80 IgV-Fc E35D/T41S/M43V/M47I/L70M/A71G (Fc fusion)
chain: VIHVTKEVKEVATLSCGHNVSVEELAQTRIYWQKDKKMVLSMVSGDINIWPEYKNRTIFDITNNLSIVIMGLRPSDEGTYECVVLKYEKDAFKREHLAEVTLSVKAD
B2: variant CD80 IgV-Fc E35D/M47V/V68M/L85Q/K89N (Fc fusion)
chain: B1 chain with S41T, V43M, I47V, V68M, M70L, G71A, L85Q, K89N
B3: variant CD80 IgV-Fc M47V (Fc fusion)
chain: B1 chain with D35E, S41T, V43M, I47V, M70L, G71A
B4: variant CD80 IgV-Fc M47V/N48K/V68M (Fc fusion)
chain: B1 chain with D35E, S41T, V43M, I47V, N48K, V68M, M70L, G71A
B5: variant CD80 IgV-Fc E35D/D46E/M47V/N63D/L85Q (Fc fusion)
chain: B1 chain with S41T, V43M, D46E, I47V, N63D, M70L, G71A, L85Q
B6: variant CD80 IgV-Fc E35D/M47V/K89N (Fc fusion)
chain: B1 chain with S41T, V43M, I47V, M70L, G71A, K89N
B7: variant CD80 IgV-Fc M47V/V68M (Fc fusion)
chain: B1 chain with D35E, S41T, V43M, I47V, V68M, M70L, G71A
B8: variant CD80 IgV-Fc E35D/M47I/T62S/L85Q (Fc fusion)
chain: B1 chain with S41T, V43M, T62S, M70L, G71A, L85Q
B9: variant CD80 IgV-Fc E35D/D46V/M47V/V68M/L85Q (Fc fusion)
chain: B1 chain with S41T, V43M, D46V, I47V, V68M, M70L, G71A, L85Q
B10: variant CD80 IgV-Fc R29H/E35D/M43V/M47I/I49V (Fc fusion)
chain: B1 chain with R29H, S41T, I49V, M70L, G71A
B11: variant CD80 IgV-Fc E35D/D46V/M47V/N48K/V68M (Fc fusion)
chain: B1 chain with S41T, V43M, D46V, I47V, N48K, V68M, M70L, G71A
B12: variant CD80 IgV-Fc E35D/K89N (Fc fusion)
chain: B1 chain with S41T, V43M, I47M, M70L, G71A, K89N
B13: variant CD80 IgV-Fc E35D/M47V (Fc fusion)
chain: B1 chain with S41T, V43M, I47V, M70L, G71A
B14: variant CD80 IgV-Fc Q33L/E35D/M47I/N48D/A71G (Fc fusion)
chain: B1 chain with Q33L, S41T, V43M, N48D, M70L
B15: variant CD80 IgV-Fc Q27H/E35D/M47I/L85Q/D90G (Fc fusion)
chain: B1 chain with Q27H, S41T, V43M, M70L, G71A, L85Q, D90G
B16: variant CD80 IgV-Fc E35D/D46E/M47V/V68M/D90G/K93E (Fc fusion)
chain: B1 chain with S41T, V43M, D46E, I47V, V68M, M70L, G71A, D90G, K93E
B17: variant CD80 IgV-Fc E35D/M47L/A71G/L85M/F92Y (Fc fusion)
chain: B1 chain with S41T, V43M, I47L, M70L, L85M, F92Y
B18: variant CD80 IgV-Fc E35D/M47V/N48K/V68M/L85Q (Fc fusion)
chain: B1 chain with S41T, V43M, I47V, N48K, V68M, M70L, G71A, L85Q
B19: variant CD80 IgV-Fc E35D/M47I/L85Q/D90G (Fc fusion)
chain: B1 chain with S41T, V43M, M70L, G71A, L85Q, D90G

How the values were obtained:
[1] = molecular target: human CTLA-4 (human) (UniProt P16410); test: flow cytometry, CHO cells expressing huCTLA4
[2] = molecular target: human PD-L1 (human) (UniProt Q9NZQ7); test: flow cytometry, CHO cells expressing huPD-L1
Target sequence in this assay (Q9NZQ7 19-290): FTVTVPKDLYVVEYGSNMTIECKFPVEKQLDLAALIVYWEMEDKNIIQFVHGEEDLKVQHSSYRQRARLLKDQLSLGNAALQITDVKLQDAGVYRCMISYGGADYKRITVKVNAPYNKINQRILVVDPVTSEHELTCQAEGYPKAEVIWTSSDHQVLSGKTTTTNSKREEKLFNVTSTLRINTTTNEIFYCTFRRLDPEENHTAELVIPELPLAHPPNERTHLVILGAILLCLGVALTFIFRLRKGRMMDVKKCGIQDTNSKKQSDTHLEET

[3] = molecular target: CD28 (human) (UniProt P10747); test: flow cytometry, Jurkat/IL2 reporter cells (CD28)
[4] = molecular target: human CTLA-4 (human) (UniProt P16410); test: flow cytometry, CHO cells expressing huCTLA4, vs WT CD80 ECD-Fc (R&D)
[5] = molecular target: human PD-L1 (human) (UniProt Q9NZQ7); test: flow cytometry, CHO cells expressing huPD-L1, vs WT CD80 ECD-Fc (R&D)
Target sequence in this assay (Q9NZQ7 19-290): as above

[6] = molecular target: CD28 (human) (UniProt P10747); test: flow cytometry, Jurkat/IL2 reporter cells (CD28), vs WT CD80 ECD-Fc (R&D)
[7] = molecular target: CD28 (human) (UniProt P10747)
[8] = molecular target: human PD-L1 (human) (UniProt Q9NZQ7)
Target sequence in this assay (Q9NZQ7 19-290 limits assumed): as the sequence (Q9NZQ7 19-290) above

[9] = molecular target: human CTLA-4 (human) (UniProt P16410); test: flow cytometry, CHO cells expressing huCTLA-4
[10] = molecular target: human PD-L1 (human) (UniProt Q9NZQ7); test: flow cytometry; PD-L1 MFI over CD28 MFI of the same protein
Target sequence in this assay (Q9NZQ7 19-290): as above

[11] = molecular target: human PD-L1 (human) (UniProt Q9NZQ7); test: flow cytometry, CHO/huPD-L1 cells; vs WT CD80 ECD-Fc (Abcam)
Target sequence in this assay (Q9NZQ7 19-290): as above

[12] = molecular target: human CTLA-4 (human) (UniProt P16410); test: flow cytometry, CHO/huCTLA-4 cells; vs WT CD80 ECD-Fc (Abcam)
[13] = molecular target: CD28 (human) (UniProt P10747); test: flow cytometry, Jurkat cells (CD28); vs WT CD80 ECD-Fc (Abcam)
[14] = molecular target: human PD-L1 (huPD-L1), on stably transduced CHO cells (human) (UniProt Q9NZQ7); test: flow cytometry; ratio of MFI on CHO/huPD-L1 cells to MFI on Jurkat (CD28) cells
[15] = molecular target: human CTLA-4 (huCTLA4), on stably transduced CHO cells (human) (UniProt P16410); test: flow cytometry on CHO/huCTLA4 cells; MFI relative to WT CD80 (CD80 WT IgV-Fc = 1.0)
[16] = molecular target: human PD-L1 (huPD-L1), on stably transduced CHO cells (human) (UniProt Q9NZQ7); test: flow cytometry on CHO/huPD-L1 cells; MFI relative to WT CD80 (CD80 WT IgV-Fc = 1.0)
[17] = molecular target: CD28, endogenously expressed on Jurkat/IL2 reporter cells (human) (UniProt P10747); test: flow cytometry on Jurkat (CD28) cells; MFI relative to WT CD80 (CD80 WT IgV-Fc = 1.0)
[18] = molecular target: human CTLA-4 (huCTLA4), on stably transduced CHO cells (human) (UniProt P16410); test: flow cytometry on CHO cells stably expressing huCTLA4, 33.3 nM Fc fusion, PE anti-human Fc
[19] = molecular target: human PD-L1 (huPD-L1), on stably transduced CHO cells (human) (UniProt Q9NZQ7); test: flow cytometry on CHO cells stably expressing huPD-L1, 33.3 nM Fc fusion, PE anti-human Fc
[20] = molecular target: CD28, endogenously expressed on Jurkat/IL2 reporter cells (human) (UniProt P10747); test: flow cytometry on Jurkat/IL2 reporter cells (endogenous CD28), 33.3 nM Fc fusion, PE anti-human Fc

human PD-L1 (huPD-L1), on stably transduced CHO cells (human), sequence (Q9NZQ7 19-290): as above
human CTLA-4 (human), sequence (P16410 36-223): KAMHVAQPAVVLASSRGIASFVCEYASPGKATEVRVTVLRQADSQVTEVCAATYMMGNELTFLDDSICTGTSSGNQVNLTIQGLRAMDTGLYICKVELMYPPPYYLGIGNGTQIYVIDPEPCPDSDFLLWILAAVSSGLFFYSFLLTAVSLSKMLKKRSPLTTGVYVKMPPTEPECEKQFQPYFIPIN
human CTLA-4 (huCTLA4), on stably transduced CHO cells (human), sequence (P16410 36-223): as above

Binder | MFI at 33.3 nM [1] [MFI] | MFI at 33.3 nM [2] [MFI] | MFI at 33.3 nM [3] [MFI] | Fold change to WT CD80 [4] [fold] | Fold change to WT CD80 [5] [fold] | Fold change to WT CD80 [6] [fold] | IL-2 luciferase reporter, fold increase over WT CD80-IgV-Fc at 5.0 nM [7] [fold] | IL-2 luciferase reporter, fold increase over WT CD80-IgV-Fc at 5.0 nM [8] [fold] | MFI at 33.3 nM [9] [MFI] | Ratio of PDL1:CD28 [10] | Fold change to WT CD80 [11] [fold] | Fold change to WT CD80 [12] [fold] | Fold change to WT CD80 [13] [fold] | Ratio of PDL1:CD28 [14] | Fold change to WT CD80 [15] [fold] | Fold change to WT CD80 [16] [fold] | Fold change to WT CD80 [17] [fold] | MFI at 33.3 nM [18] [MFI] | MFI at 33.3 nM [19] [MFI] | MFI at 33.3 nM [20] [MFI]
B1 | 249000 | 13000 | 2700 | 1.59 | 1.09 | 0.15 |  |  |  |  |  |  |  |  |  |  |  |  |  | 
B2 |  | 12100 | 246 |  |  |  | 7.4 | 7.4 | 30300 | 49.1 | 94.4 | 0.7 | 0.3 |  |  |  |  |  |  | 
B3 |  | 2320 | 68.7 |  |  |  | 3.9 | 3.9 | 33300 | 33.7 | 18.1 | 0.8 | 0.1 |  |  |  |  |  |  | 
B4 |  | 14500 | 641 |  |  |  | 5.8 | 5.8 | 34600 | 22.6 | 113 | 0.9 | 0.9 |  |  |  |  |  |  | 
B5 | 274000 | 69800 | 1330 | 1.74 | 5.88 | 0.07 |  |  |  |  |  |  |  |  |  |  |  |  |  | 
B6 |  | 4340 | 507 |  |  |  | 5.8 | 5.8 | 39300 | 8.6 | 33.9 | 1 | 0.7 |  |  |  |  |  |  | 
B7 |  | 4290 | 328 |  |  |  | 4.8 | 4.8 | 7280 | 13.1 | 33.5 | 0.2 | 0.5 |  |  |  |  |  |  | 
B8 | 301000 | 45000 | 1760 | 1.91 | 3.79 | 0.1 |  |  |  |  |  |  |  |  |  |  |  |  |  | 
B9 |  | 26300 | 331 |  |  |  | 8.5 | 8.5 | 36500 | 79.4 | 205 | 0.9 | 0.5 |  |  |  |  |  |  | 
B10 | 4690 | 1590 | 336 | 0.03 | 0.13 | 0.02 |  |  |  |  |  |  |  |  |  |  |  |  |  | 
B11 |  | 25900 | 1080 |  |  |  | 6.1 | 6.1 | 23900 | 23.9 | 203 | 0.6 | 1.5 |  |  |  |  |  |  | 
B12 |  | 757 | 236 |  |  |  | 2.5 | 2.5 | 21800 | 3.2 | 5.9 | 0.5 | 0.3 |  |  |  |  |  |  | 
B13 |  | 6800 | 501 |  |  |  | 4.7 | 4.7 | 44600 | 13.6 | 53.1 | 1.1 | 0.7 | 6 | 10.9 | 41.7 | 7 | 20900 | 2940 | 461
B14 | 117000 | 31200 | 644 | 0.74 | 2.62 | 0.04 |  |  |  |  |  |  |  |  |  |  |  |  |  | 
B15 | 258000 | 30700 | 3510 | 1.64 | 2.58 | 0.19 |  |  |  |  |  |  |  |  |  |  |  |  |  | 
B16 | 273000 | 71900 | 27100 | 1.74 | 6.06 | 1.5 |  |  |  |  |  |  |  |  |  |  |  |  |  | 
B17 | 216000 | 46700 | 2460 | 1.37 | 3.93 | 0.14 |  |  |  |  |  |  |  |  |  |  |  |  |  | 
B18 |  | 10500 | 118 |  |  |  | 7.9 | 7.9 | 26100 | 88.8 | 81.9 | 0.6 | 0.2 |  |  |  |  |  |  | 
B19 | 248000 | 35700 | 4100 | 1.57 | 3.01 | 0.23 |  |  |  |  |  |  |  |  |  |  |  |  |  | 
